System: Escherichia coli TOP10
Assay: shrunken log2 fold change of peptide-encoding DNA abundance (4.5 h post-induction vs induction); higher = less antimicrobial activity (less host growth inhibition)
Details: time post-induction: 4.5 h; library: site-saturation at positions 5, 18, 19, 20
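Note: peptides expressed intracellularly from a pBAD plasmid library in pooled LB shake-flask culture, induced with 0.3% L-arabinose, DNA abundance read by NGS, three biological replicates, DESeq2 with apeglm shrinkage.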

Sequence: RRIRNRPPRLPRPRPRPRGWPRP
- shrunken log2 fold change: 0.962

Sequence: RRIRNRPPRLPRPRPRPTVIPRP
- shrunken log2 fold change: 0.0591

Sequence: RRIRGRPPRLPRPRPRPKWHPRP
- shrunken log2 fold change: 0.542

Sequence: RRIRKRPPRLPRPRPRPQSYPRP
- shrunken log2 fold change: 0.04

Sequence: RRIRTRPPRLPRPRPRPDSLPRP
- shrunken log2 fold change: -0.153

Sequence: RRIRMRPPRLPRPRPRPPCEPRP
- shrunken log2 fold change: 1.11

Sequence: RRIRTRPPRLPRPRPRPFQFPRP
- shrunken log2 fold change: -0.131

Sequence: RRIRDRPPRLPRPRPRPEHSPRP
- shrunken log2 fold change: -0.027

Sequence: RRIRRRPPRLPRPRPRPQMLPRP
- shrunken log2 fold change: 0.246

Sequence: RRIRCRPPRLPRPRPRPPHRPRP
- shrunken log2 fold change: 0.854

Sequence: RRIRFRPPRLPRPRPRPAVWPRP
- shrunken log2 fold change: 0.402

Sequence: RRIRMRPPRLPRPRPRPKTWPRP
- shrunken log2 fold change: 0.602

Sequence: RRIRGRPPRLPRPRPRPQKEPRP
- shrunken log2 fold change: 0.0631

Sequence: RRIRQRPPRLPRPRPRPHREPRP
- shrunken log2 fold change: -0.152

Sequence: RRIRVRPPRLPRPRPRPVAHPRP
- shrunken log2 fold change: 0.0271

Sequence: RRIRDRPPRLPRPRPRPYGFPRP
- shrunken log2 fold change: -0.0405

Sequence: RRIRCRPPRLPRPRPRPMSAPRP
- shrunken log2 fold change: -0.0757

Sequence: RRIRHRPPRLPRPRPRPQPWPRP
- shrunken log2 fold change: 0.0549

Sequence: RRIRCRPPRLPRPRPRPPELPRP
- shrunken log2 fold change: 0.643

Sequence: RRIRSRPPRLPRPRPRPFHWPRP
- shrunken log2 fold change: -0.108

Sequence: RRIRYRPPRLPRPRPRPWWCPRP
- shrunken log2 fold change: -0.139

Sequence: RRIRDRPPRLPRPRPRPIELPRP
- shrunken log2 fold change: 0.0698

Sequence: RRIRFRPPRLPRPRPRPKGQPRP
- shrunken log2 fold change: 0.105

Sequence: RRIRNRPPRLPRPRPRPKDCPRP
- shrunken log2 fold change: -0.0418

Sequence: RRIRWRPPRLPRPRPRPKVCPRP
- shrunken log2 fold change: -0.0693

Sequence: RRIRSRPPRLPRPRPRPREAPRP
- shrunken log2 fold change: 0.587

Sequence: RRIRYRPPRLPRPRPRPPWLPRP
- shrunken log2 fold change: 1.46

Sequence: RRIRFRPPRLPRPRPRPIDNPRP
- shrunken log2 fold change: 2.36

Sequence: RRIRCRPPRLPRPRPRPHYIPRP
- shrunken log2 fold change: -0.0818

Sequence: RRIRIRPPRLPRPRPRPNCCPRP
- shrunken log2 fold change: -0.0793

Sequence: RRIRIRPPRLPRPRPRPMGMPRP
- shrunken log2 fold change: -0.253

Sequence: RRIRLRPPRLPRPRPRPIAFPRP
- shrunken log2 fold change: -0.14

Sequence: RRIRMRPPRLPRPRPRPDWLPRP
- shrunken log2 fold change: -0.0671

Sequence: RRIRFRPPRLPRPRPRPRWNPRP
- shrunken log2 fold change: 0.00853

Sequence: RRIRRRPPRLPRPRPRPKICPRP
- shrunken log2 fold change: 0.0561

Sequence: RRIRYRPPRLPRPRPRPTHDPRP
- shrunken log2 fold change: 0.032

Sequence: RRIRFRPPRLPRPRPRPDLLPRP
- shrunken log2 fold change: 0.118

Sequence: RRIRHRPPRLPRPRPRPIGYPRP
- shrunken log2 fold change: 0.0062

Sequence: RRIRQRPPRLPRPRPRPAWVPRP
- shrunken log2 fold change: 0.0382

Sequence: RRIRSRPPRLPRPRPRPNTQPRP
- shrunken log2 fold change: -0.274

Sequence: RRIRFRPPRLPRPRPRPHVQPRP
- shrunken log2 fold change: -0.0901

Sequence: RRIRCRPPRLPRPRPRPWPHPRP
- shrunken log2 fold change: -0.0205

Sequence: RRIRWRPPRLPRPRPRPQCGPRP
- shrunken log2 fold change: -0.0434

Sequence: RRIRDRPPRLPRPRPRPPGNPRP
- shrunken log2 fold change: 0.21

Sequence: RRIRSRPPRLPRPRPRPDQHPRP
- shrunken log2 fold change: -0.0484

Sequence: RRIRCRPPRLPRPRPRPSWDPRP
- shrunken log2 fold change: -0.134

Sequence: RRIRGRPPRLPRPRPRPTWGPRP
- shrunken log2 fold change: 0.469

Sequence: RRIRCRPPRLPRPRPRPDDYPRP
- shrunken log2 fold change: 0.0185

Sequence: RRIRCRPPRLPRPRPRPQNLPRP
- shrunken log2 fold change: -0.49

Sequence: RRIRTRPPRLPRPRPRPRVLPRP
- shrunken log2 fold change: 0.242

Sequence: RRIRIRPPRLPRPRPRPSQGPRP
- shrunken log2 fold change: -0.0729

Sequence: RRIRGRPPRLPRPRPRPVFPPRP
- shrunken log2 fold change: 0.36

Sequence: RRIRYRPPRLPRPRPRPPTHPRP
- shrunken log2 fold change: -0.251

Sequence: RRIRNRPPRLPRPRPRPQQAPRP
- shrunken log2 fold change: -0.356

Sequence: RRIRQRPPRLPRPRPRPNEYPRP
- shrunken log2 fold change: -1.18

Sequence: RRIRMRPPRLPRPRPRPCIDPRP
- shrunken log2 fold change: 0.428

Sequence: RRIRIRPPRLPRPRPRPGFPPRP
- shrunken log2 fold change: 0.186

Sequence: RRIRGRPPRLPRPRPRPEYCPRP
- shrunken log2 fold change: 0.307

Sequence: RRIRIRPPRLPRPRPRPSPNPRP
- shrunken log2 fold change: -0.735

Sequence: RRIRYRPPRLPRPRPRPEYHPRP
- shrunken log2 fold change: -0.0883

— the supplement of paper PMC9112550, “Optimization of the antimicrobial peptide Bac7 by deep mutational scanning” (BMC Biology, 2022)
